In series [1] the target is T1, HIF-1 (HIF-1alpha/HIF-1beta (ARNT) heterodimer) (Homo sapiens?, UniProt Q16665;P27540 Q16665:1-826,P27540:2-789). As to the kind of experiment: competition; TransAM. To be noted: protein: extract; tags: none (endogenous, nuclear extract). The method, then: To assess the relative affinities of oligonucleotides for a HIF-1α containing complex, the HIF-1 TransAM assay (Active Motif, Catalog # 47096) was utilized. The assay was performed according to manufacturer's instructions. Briefly, a double-stranded oligonucletide containing the hypoxia response element (HRE) was immobilized on a 96-well plate. A nuclear extract containing HIF-1α complexes was incubated and allowed to bind to the immobilized oligonucleotide. The unbound material was washed away and the bound HIF-1α detected using an antibody that specificially recognizes HIF-1α. The anti-HIF-1α antibody was detected by a secondary antibody labeled with horseradish peroxidase (HRP), and the amount of HRP in each well was measured using a calorimetric substrate reaction and read using a microplate spectrophotometer.
The ability of candidate decoy molecules to compete for binding of HIF-1α to the HRE element-immobilized on the plate were measured and compared to reveal relative binding affinities. Candidate decoys were added in increasing molar ratios (relative to the amount of oligo immobilized on the plate) to compete for binding to the HIF-1α containing complexes. The amounts of decoys added to the assay included 0.625, 1.25, 2.5, 5, 10 and 20 fold molar excess. A well containing a competing decoy able to bind HIF-1α with high affinity would give a lower absorbance reading as compared to a decoy with low affinity for HIF-1α. All potential decoys were then compared and ranked in order to assess their relative binding affinities.
The screen was conducted using different decoy concentrations. For each UV absorbance reading, normalization was done by calculating the ratio of absorbance readings of sample vs. wild type control. The bigger ratio represents less competition of binding with HIF-1α when compared with wild-type control. The smaller (smaller than 1.0 or close to 1.0) ratios represent better binding or better competition.

Series [2] deals with T1, HIF-1 (HIF-1alpha/HIF-1beta (ARNT) …). As to the kind of experiment: competition; 2.5-fold molar excess. To be noted: protein: extract; tags: none (endogenous, nuclear extract).

This is an account of results in patent US20050215503, “HIF oligonucleotide decoy molecules” (published 2005).

T1 sequence (Q16665 whole entry, chain 1 of 2): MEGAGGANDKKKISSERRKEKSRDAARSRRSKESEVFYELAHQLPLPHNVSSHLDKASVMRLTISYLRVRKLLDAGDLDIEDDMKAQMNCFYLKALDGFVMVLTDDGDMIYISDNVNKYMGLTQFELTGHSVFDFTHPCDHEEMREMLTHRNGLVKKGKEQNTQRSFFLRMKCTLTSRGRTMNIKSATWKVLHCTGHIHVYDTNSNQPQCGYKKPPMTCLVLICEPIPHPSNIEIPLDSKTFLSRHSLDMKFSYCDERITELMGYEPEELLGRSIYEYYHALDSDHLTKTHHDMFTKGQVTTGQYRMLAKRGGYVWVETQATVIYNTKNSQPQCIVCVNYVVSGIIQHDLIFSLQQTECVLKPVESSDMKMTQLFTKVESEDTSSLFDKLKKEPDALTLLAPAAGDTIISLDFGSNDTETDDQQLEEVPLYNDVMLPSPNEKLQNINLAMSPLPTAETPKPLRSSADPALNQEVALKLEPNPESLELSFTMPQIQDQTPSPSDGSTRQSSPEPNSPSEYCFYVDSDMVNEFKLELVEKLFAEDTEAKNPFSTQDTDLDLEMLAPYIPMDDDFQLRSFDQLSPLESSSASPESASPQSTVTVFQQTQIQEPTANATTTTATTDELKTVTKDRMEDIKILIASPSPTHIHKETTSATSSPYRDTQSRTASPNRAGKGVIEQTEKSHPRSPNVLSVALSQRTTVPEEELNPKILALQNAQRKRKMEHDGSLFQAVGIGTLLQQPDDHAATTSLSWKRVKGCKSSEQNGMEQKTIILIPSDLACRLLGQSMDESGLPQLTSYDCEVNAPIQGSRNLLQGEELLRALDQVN
T1 sequence (P27540 2-789, chain 2 of 2): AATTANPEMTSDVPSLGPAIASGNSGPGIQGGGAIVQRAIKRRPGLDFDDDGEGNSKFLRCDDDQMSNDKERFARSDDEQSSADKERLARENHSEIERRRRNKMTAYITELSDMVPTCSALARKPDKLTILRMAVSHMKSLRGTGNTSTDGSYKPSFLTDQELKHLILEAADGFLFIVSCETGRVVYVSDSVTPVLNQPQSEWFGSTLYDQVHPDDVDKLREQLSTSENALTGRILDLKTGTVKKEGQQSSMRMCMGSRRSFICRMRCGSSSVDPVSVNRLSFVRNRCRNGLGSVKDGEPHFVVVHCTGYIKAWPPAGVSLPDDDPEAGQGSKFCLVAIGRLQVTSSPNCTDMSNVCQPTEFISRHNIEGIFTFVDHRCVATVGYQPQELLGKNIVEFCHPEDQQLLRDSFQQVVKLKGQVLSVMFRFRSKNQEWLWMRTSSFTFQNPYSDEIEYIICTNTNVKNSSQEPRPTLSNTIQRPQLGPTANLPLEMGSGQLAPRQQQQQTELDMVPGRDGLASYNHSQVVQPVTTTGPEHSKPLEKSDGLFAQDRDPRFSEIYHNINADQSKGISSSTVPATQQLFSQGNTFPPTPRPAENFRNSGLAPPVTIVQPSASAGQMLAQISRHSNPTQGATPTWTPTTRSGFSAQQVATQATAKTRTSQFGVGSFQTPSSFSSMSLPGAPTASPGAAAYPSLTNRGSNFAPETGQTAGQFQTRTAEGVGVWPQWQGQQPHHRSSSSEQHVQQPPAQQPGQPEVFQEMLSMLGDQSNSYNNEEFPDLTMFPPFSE

B1: decoy 971 (dsDNA)
DNA 1: CCAGTGTACGTGCCTCAGG
DNA 2: CCTGAGGCACGTACACTGG
In series [1], B1 gave a binding signal of 1.05 ratio.

B2: decoy 935 (dsDNA)
DNA 1: CCAGCGTAAGTGCCTCAGG
DNA 2: CCTGAGGCACTTACGCTGG
In turn, B2 showed a binding signal in series [1] of 2.43 ratio.

B3: decoy 991 (dsDNA)
DNA 1: CCAGCGTACGTGCATCAGG
DNA 2: CCTGATGCACGTACGCTGG
On to B3, for which the binding signal in series [1] stood at 1.02 ratio.

B4: 895/896 H5/PO (dsDNA)
DNA 1: CACCAGCGTACGTGCCTCAGG
DNA 2: CCTGAGGCACGTACGCTGGTG
modifications: 895: PS at 5 linkages from 3' end; 896: unmodified
On to B4, for which the binding signal in series [2] came out at 1.27 ratio.

B5: 895/896 H6/H6 (dsDNA)
DNA 1: CACCAGCGTACGTGCCTCAGG
DNA 2: CCTGAGGCACGTACGCTGGTG
modifications: PS at 6 linkages from 3' end, both strands
B5 showed a binding signal in series [2] of 1.01 ratio.

B6: decoy 933 (dsDNA)
DNA 1: CCAGCGTATGTGCCTCAGG
DNA 2: CCTGAGGCACATACGCTGG
Molecule B6 showed a binding signal in series [1] of 3.47 ratio.

B7: decoy 937 (dsDNA)
DNA 1: CCAGCGTAGGTGCCTCAGG
DNA 2: CCTGAGGCACCTACGCTGG
With B7, the binding signal in series [1] was 2.49 ratio.

B8: decoy 881/882 (dsDNA)
DNA 1: GGCTGCAGGAGACGTGGAGAA
DNA 2: TTCTCCACGTCTCCTGCAGCC
B8: the binding signal in series [1] amounted to 3.62 ratio.

B9: decoy 997 (dsDNA)
DNA 1: CCGGGGCACGTGCCCCAGG
DNA 2: CCTGGGGCACGTGCCCCGG
In series [1], B9 showed a binding signal of 1.28 ratio.

B10: 895/896 PS/PS (dsDNA)
DNA 1: CACCAGCGTACGTGCCTCAGG
DNA 2: CCTGAGGCACGTACGCTGGTG
modifications: full PS both strands
B10: the binding signal in series [2] was determined as 0.98 ratio.

B11: decoy 879/880 (dsDNA)
DNA 1: GGCTGCTGCAGACGTGCAGGTC
DNA 2: GACCTGCACGTCTGCAGCAGCC
For B11, the binding signal in series [1] was found to be 1.4 ratio.

B12: 895/896 H2/H2 (dsDNA)
DNA 1: CACCAGCGTACGTGCCTCAGG
DNA 2: CCTGAGGCACGTACGCTGGTG
modifications: PS at 2 linkages from 3' end, both strands
In series [2], B12 gave a binding signal of 0.86 ratio.

B13: decoy 887/888 (dsDNA)
DNA 1: GGCTGCACCGTACGTGCTGATC
DNA 2: GATCAGCACGTACGGTGCAGCC
In the case of B13, the binding signal in series [1] stood at 1.89 ratio.

B14: decoy 865/866 (dsDNA)
DNA 1: AGCAGACGTGCAGGCA
DNA 2: TGCCTGCACGTCTGCT
In series [1], B14 gave a binding signal of 2.56 ratio.

B15: 895/896 H3/H3 (dsDNA)
DNA 1: CACCAGCGTACGTGCCTCAGG
DNA 2: CCTGAGGCACGTACGCTGGTG
modifications: PS at 3 linkages from 3' end, both strands
As for B15, the binding signal in series [2] came out at 1.33 ratio.

B16: decoy 809/810 (dsDNA)
DNA 1: AGGGCCGGACGTGGGGCCCC
DNA 2: GGGGCCCCACGTCCGGCCCT
In series [1], B16 gave a binding signal of 4.57 ratio.

B17: decoy 883/884 (dsDNA)
DNA 1: AGAAGACGTGCAGGAT
DNA 2: ATCCTGCACGTCTTCT
B17 yielded a binding signal in series [1] of 4.37 ratio.

B18: decoy 973 (dsDNA)
DNA 1: CCAGAGTACGTGCCTCAGG
DNA 2: CCTGAGGCACGTACTCTGG
As to B18, in series [1], the binding signal stood at 1.34 ratio.

B19: decoy 861/862 (dsDNA)
DNA 1: CTAATACGTGCCGCTG
DNA 2: CAGCGGCACGTATTAG
For the molecule B19, the binding signal in series [1] was determined as 2.18 ratio.

B20: 895/896 PS/PO (dsDNA)
DNA 1: CACCAGCGTACGTGCCTCAGG
DNA 2: CCTGAGGCACGTACGCTGGTG
modifications: 895: full PS; 896: unmodified
In turn, B20 yielded a binding signal in series [2] of 0.52 ratio.

B21: decoy 869/870 (dsDNA)
DNA 1: AGCAGACGTGCAGGGT
DNA 2: ACCCTGCACGTCTGCT
B21 had a binding signal in series [1] of 2.28 ratio.

B22: decoy 985 (dsDNA)
DNA 1: CCAGCGTACGTGACTCAGG
DNA 2: CCTGAGTCACGTACGCTGG
As to B22, the binding signal in series [1] is 0.91 ratio.

B23: decoy 901 (dsDNA)
DNA 1: CACGTGCATACGTGGGCTCCA
DNA 2: TGGAGCCCACGTATGCACGTG
Turning to B23, the binding signal in series [1] is 1.6 ratio.

B24: decoy 903 (dsDNA)
DNA 1: CACCTGCATACGTGGGCTCCA
DNA 2: TGGAGCCCACGTATGCAGGTG
B24 had a binding signal in series [1] of 1.94 ratio.

B25: decoy 981 (dsDNA)
DNA 1: CCAGCGTACGTGGCTCAGG
DNA 2: CCTGAGCCACGTACGCTGG
B25 registered a binding signal in series [1] of 1.7 ratio.

B26: decoy 969 (dsDNA)
DNA 1: CCAGGGTACGTGCCTCAGG
DNA 2: CCTGAGGCACGTACCCTGG
Take B26: the binding signal in series [1] was determined as 1.67 ratio.

B27: decoy 827/828 (dsDNA)
DNA 1: AGGTTACGTGCGGACA
DNA 2: TGTCCGCACGTAACCT
For the molecule B27, the binding signal in series [1] came out at 4.48 ratio.

B28: decoy 851/852 (dsDNA)
DNA 1: CGGAGTACGTGACGGAGC
DNA 2: GCTCCGTCACGTACTCCG
In turn, B28 had a binding signal in series [1] of 1.41 ratio.

B29: 895/896 H3/PS (dsDNA)
DNA 1: CACCAGCGTACGTGCCTCAGG
DNA 2: CCTGAGGCACGTACGCTGGTG
modifications: 895: PS at 3 linkages from 3' end; 896: full PS
For B29, the binding signal in series [2] was found to be 1.38 ratio.

B30: decoy 811/812 (dsDNA)
DNA 1: ACGCTGAGTGCGTGCGGGAC
DNA 2: GTCCCGCACGCACTCAGCGT
B30 yielded a binding signal in series [1] of 3.9 ratio.

B31: decoy 889/890 (dsDNA)
DNA 1: TGCATACGTGCAGGTC
DNA 2: GACCTGCACGTATGCA
Molecule B31 yielded a binding signal in series [1] of 4.14 ratio.

B32: decoy 853/854 (dsDNA)
DNA 1: TTGCTTACGTGCGCCCGG
DNA 2: CCGGGCGCACGTAAGCAA
As for B32, the binding signal in series [1] was determined as 1.73 ratio.

B33: decoy 845/846 (dsDNA)
DNA 1: GAGCGTACGTGCCTCAGG
DNA 2: CCTGAGGCACGTACGCTC
In series [1], B33 yielded a binding signal of 1.59 ratio.

B34: decoy 817/818 (dsDNA)
DNA 1: CTGCCGACGTGCGCTCCGGAG
DNA 2: CTCCGGAGCGCACGTCGGCAG
On to B34, for which the binding signal in series [1] is 4.81 ratio.

B35: decoy 891/892 (dsDNA)
DNA 1: GGCTGCTGCATACGTGCAGGTC
DNA 2: GACCTGCACGTATGCAGCAGCC
The molecule B35 returned a binding signal in series [1] of 1.21 ratio.

B36: decoy 983 (dsDNA)
DNA 1: CCAGCGTACGTGTCTCAGG
DNA 2: CCTGAGACACGTACGCTGG
The molecule B36 displayed a binding signal in series [1] of 1.3 ratio.

B37: decoy 875/876 (dsDNA)
DNA 1: TGCAGACGTGCAGGTC
DNA 2: GACCTGCACGTCTGCA
In series [1], B37 displayed a binding signal of 2.63 ratio.

B38: decoy 863/864 (dsDNA)
DNA 1: AGCAGACGTGCAGGAT
DNA 2: ATCCTGCACGTCTGCT
Turning to B38, the binding signal in series [1] came out at 2.15 ratio.

B39: decoy 885/886 (dsDNA)
DNA 1: TACAGACGTGCAGGTC
DNA 2: GACCTGCACGTCTGTA
B39 gave a binding signal in series [1] of 4.46 ratio.

B40: decoy 843/844 (dsDNA)
DNA 1: GTGCATACGTGGGCTCCA
DNA 2: TGGAGCCCACGTATGCAC
Molecule B40 showed a binding signal in series [1] of 1.7 ratio.

B41: decoy 825/826 (dsDNA)
DNA 1: AGGAGACGTGCGAGAA
DNA 2: TTCTCGCACGTCTCCT
The molecule B41 registered a binding signal in series [1] of 5.1 ratio.

B42: decoy 823/824 (dsDNA)
DNA 1: TGCATACGTGGGCTCCAACAG
DNA 2: CTGTTGGAGCCCACGTATGCA
The molecule B42 came in with a binding signal in series [1] of 4.4 ratio.

B43: 895/896 H5/H5 (dsDNA)
DNA 1: CACCAGCGTACGTGCCTCAGG
DNA 2: CCTGAGGCACGTACGCTGGTG
modifications: PS at 5 linkages from 3' end, both strands
Regarding B43, in series [2], the binding signal stood at 1.34 ratio.

B44: decoy 999 (dsDNA)
DNA 1: CCATGGCACGTGCCTCAGG
DNA 2: CCTGAGGCACGTGCCATGG
Consider B44, for which the binding signal in series [1] was 1.3 ratio.

B45: 895/896 H4/H4 (dsDNA)
DNA 1: CACCAGCGTACGTGCCTCAGG
DNA 2: CCTGAGGCACGTACGCTGGTG
modifications: PS at 4 linkages from 3' end, both strands
For the molecule B45, the binding signal in series [2] was 1.42 ratio.

B46: decoy 849/850 (dsDNA)
DNA 1: GCCTACACGTGGGTTCCC
DNA 2: GGGAACCCACGTGTAGGC
For the molecule B46, the binding signal in series [1] turned out to be 2.66 ratio.
